Data from US20190382488A1 (IMAGINAB, published 2019).

How the values were obtained:
cell-surface human CD8 [1] = molecular target: T1, cell-surface human CD8 (human, UniProt P01732 22-235); assay: flow cytometry on HPB-ALL cells, Protein L-biotin then streptavidin-APC
T1 construct: the cell is named under assay; also called cellular human CD8; CD8 on PC3-CD8 cells
Description: (§1) Flow cytometry analysis of cys-diabody binding to cell-surface human CD8 on HPB-ALL cells was performed. Cells were stained with respective concentrations of cys-diabody, washed, stained with a secondary Protein L conjugated to Biotin, washed, then stained with a tertiary streptavidin-APC. Analysis was performed with 10,000 events/point in triplicate for each concentration. The results are shown in graph format in FIG. 30A. The graph presents the mean fluorescence intensity (MFI) vs. the log of the concentration (nM). Error bars represent the standard error. The data indicates an EC₅₀ of 0.04 nM.

cell-surface human CD8 [2] = molecular target: T1, cell-surface human CD8; assay: flow cytometry, primary human CD8+ T cells, Protein L-biotin and streptavidin-APC
Description: as §1, with “primary human CD8+ T” for “HPB-ALL”, “30B.” for “30A.”, “0.02” for “0.04”

cell-surface human CD8 [3] = molecular target: T1, cell-surface human CD8; assay: flow cytometry on HPB-ALL cells, Protein L-biotin then streptavidin-APC; remark: listed apart in the source
Description: as §1, with “of cys-diabody (+/−C-terminal cysteine conjugation to Desferoxamine) binding to” for “of cys-diabody binding to”, “in FIG. 30C. The graph” for “in FIG. 30A. The graph”, “of 0.04 nM and 0.06 nM.” for “of 0.04 nM.”

cell-surface human CD8 [4] = molecular target: T1, cell-surface human CD8; assay: flow cytometry, HPB-ALL cells, Protein L-biotin and streptavidin-APC
Description: as §1

cell-surface human CD8 [5] = molecular target: T1, cell-surface human CD8; assay: flow cytometry on primary human CD8+ T cells, Protein L-biotin then streptavidin-APC
Description: as §1, with “primary human CD8+ T” for “HPB-ALL”, “30B.” for “30A.”, “0.02” for “0.04”

T1 sequence (P01732 22-235 limits assumed): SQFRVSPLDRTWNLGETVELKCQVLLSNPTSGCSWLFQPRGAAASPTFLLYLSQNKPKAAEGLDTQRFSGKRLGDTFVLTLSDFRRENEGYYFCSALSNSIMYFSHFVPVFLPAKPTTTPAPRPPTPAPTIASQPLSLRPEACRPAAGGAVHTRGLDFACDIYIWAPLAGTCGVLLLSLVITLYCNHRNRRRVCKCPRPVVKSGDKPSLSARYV

B1: IAb_Cys-Db3b_CD8 (other)
chain: DVQITQSPSSLSASVGDRVTITCRTSRSISQYLAWYQQKPGKVPKLLIYSGSTLQSGVPSRFSGSGSGTDFTLTISSLQPEDVATYYCQQHNENPLTFGGGTKVEIKGGGSGGGGEVQLVESGGGLVQPGGSLRLSCAASGFNIKDTYIHFVRQAPGKGLEWIGRIDPANDNTLYASKFQGKATISADTSKNTAYLQMNSLRAEDTAVYYCGRGYGYYVFDHWGQGTLVTVSSGGC
notes: Cys-diabody homodimer; also called humanized OKT8 cys-diabody VL-8-VH
**Q.** For B1, which EC50 (cell-surface human CD8 [1]) is on record?
**A.** 0.04 nM

**Q.** And the EC50 (cell-surface human CD8 [2])?
**A.** 0.02 nM

**Q.** What about the EC50 (cell-surface human CD8 [3]) of the same binder?
**A.** 0.04 nM

**Q.** And the EC50 (cell-surface human CD8 [4])?
**A.** 0.04 nM

**Q.** And the EC50 (cell-surface human CD8 [5])?
**A.** 0.02 nM
